From patent publication US20200256877A1, “Microbiota Sequence Variants Of Tumor-Related Antigenic Epitopes” (ENTEROME S.A., priority 2017, published 2020)

Assays:
HLA-A*0201 = molecular target: T1, HLA-A*0201 (Homo sapiens, UniProt P04439, D140Y/D185E/D98H/E176V/E277Q/G131W/G231S/I119V/I121R/I166T/I218V/L300P/L318F/N151K/N90K/P208A/P217A/Q86G/Q94H/R138H/R169H/T345S); test: In vitro affinity of peptides to HLA-A*0201 on T2 cell line (FACS, anti-HLA-A2 labeling); type: cell-based; details: T2 cells; for Binding to HLA-A*0201 (in words): in vitro; for Mean fluorescence intensity: 16 hours
T1 construct: human tumoral cell T2 which expresses the HLA-A*0201 molecule; endogenous in cells; host or cells: T2 cells (human, TAP1/2 negative)
Excerpt: A method for in vitro testing is well-known to the skilled person. For example, the skilled person may use the experimental protocol as validated for peptides presented by HLA-A*0201 in Tourdot et al., A general strategy to enhance immunogenicity of low-affinity HLA-A2.1-associated peptides: implication in the identification of cryptic tumor epitopes. Eur J Immunol. 2000 December; 30(12):3411-21. In this context, a reference peptide, such as HIV pol 589-597, may be additionally used in the test. This enables calculation of the in vitro affinity relative to the binding observed with the reference peptide, e.g. by the following equation:
Relative affinity=concentration of each peptide inducing 20% of expression of HLA-A*0201/concentration of the reference peptide inducing 20% of expression of HLA-A*0201
(where 100% is the level of HLA-A*0201 expression detected with the reference peptide, e.g. HIV pol 589-597, for example used at a 100 μM concentration).
The experimental protocol is similar to the one that was validated for peptides presented by the HLA-A*0201 (Tourdot et al., A general strategy to enhance immunogenicity of low-affinity HLA-A2.1-associated peptides: implication in the identification of cryptic tumor epitopes. Eur J Immunol. 2000 December; 30(12):3411-21). Affinity measurement of the peptides is achieved with the human tumoral cell T2 which expresses the HLA-A*0201 molecule, but which is TAP1/2 negative and incapable of presenting endogenous peptides.
(§1) T2 cells (2.10^5 cells per well) were incubated with decreasing concentrations of peptides from 100 μM to 0.1 μM in a AIMV medium supplemented with 100 ng/μl of human β2m at 37° C. for 16 hours. Cells were then washed two times and marked with the anti-HLA-A2 antibody coupled to PE (clone BB7.2, BD Pharmagen).
The analysis was performed by FACS (Guava Easy Cyte). For each peptide concentration, the geometric mean of the labeling associated with the peptide of interest was subtracted from background noise and reported as a percentage of the geometric mean of the […] labeling obtained for the reference peptide HIV pol 589-597 at a concentration of 100 μM. The relative affinity is then determined as follows:
relative affinity=concentration of each peptide inducing 20% of expression of HLA-A*0201/concentration of the reference peptide inducing 20% of expression of HLA-A*0201.
The experimental protocol, materials and methods correspond to those outlined in Example 4, with the only difference that the above mentioned antigenic peptides were used.
as §1, with “β2 m” for “β2m”

[1] = test system: splenocytes (IFNγ secretion); test: ELISPOT-IFNγ on splenocytes of HHD DR3 and HHD DR1 mice vaccinated with IL13RA2-BL (Example 15); type: in vivo, mouse
Description: Mice were immunized with a specific vaccination peptide (vacc-pAg) combined to a common helper peptide (h-pAg).
The peptides were provided as follows: • vacc-pAg: IL13RA2-BL; all produced and provided at a 4 mg/ml (4 mM) concentration; • h-pAg: HHD-DR3 peptide (SEQ ID NO: 32); for immunization of β/A2/DR3 HHDDR3 mice provided at a 4 mg/ml (4 mM) concentration • h-pAg: UCP2 peptide (SEQ ID NO: 159); for immunization of β/A2/DR1 HHDDR1 mice provided at a 4 mg/ml (4 mM) concentration
The animals were immunized on day 0 (d0) with a prime injection, and on d14 with a boost injection. Each mouse was injected s.c. at tail base with 100 μL of an oil-based emulsion that contained: • 100 μg of vacc-pAg (25 μL of 4 mg/mL stock per mouse); • 150 μg of h-pAg (15 μL of 10 mg/mL stock per mouse); • 10 μL of PBS to reach a total volume of 50 μL (per mouse); • Incomplete Freund's Adjuvant (IFA) added at 1:1 (v:v) ratio (50 μL per mouse).
Seven days after the boost injection (i.e. on d21), the animals were euthanized and the spleen was harvested. Splenocytes were prepared by mechanical disruption of the organ followed by 70 μm-filtering and Ficoll density gradient purification.
The splenocytes were immediately used in an ELISPOT-IFNγ assay (Table 21). […]
(§2) Spots were counted on a Grand ImmunoSpot® S6 Ultimate UV Image Analyzer interfaced to the ImmunoSpot 5.4 software (CTL-Europe). […]

[2] = test system: splenocytes (IFNγ secretion); test: ELISPOT-IFNγ on splenocytes of β/A2/DR3 mice vaccinated with FOXM1-B2 (Example 12); type: in vivo, mouse
Description: Briefly, 15 β/A2/DR3 mice were immunized with a specific vaccination peptide (vacc-pAg) combined to a common helper peptide (h-pAg) (as outlined in Table 14 below). The vacc-pAg were compared in couples (group 1 vs. group 2). Thereby, both native and optimized versions of a single peptide were compared in each wave.
The animals were immunized on day 0 (d0) with a prime injection, and on d14 with a boost injection. Each mouse was injected s.c. at tail base with 100 μL of an oil-based emulsion that contained:
100 μg of vacc-pAg (25 μL of 4 mg/mL stock per mouse);
150 μg of h-pAg (15 μL of 10 mg/mL stock per mouse);
10 μL of PBS to reach a total volume of 50 μL (per mouse);
Incomplete Freund's Adjuvant (IFA) added at 1:1 (v:v) ratio (50 μL per mouse).
Seven days after the boost injection (i.e., on d21), the animals were euthanized and the spleen was harvested. Splenocytes were prepared by mechanical disruption of the organ followed by 70 μm-filtering and Ficoll density gradient purification.
The splenocytes were immediately used in an ELISPOT-IFNγ assay (Table 15). […]
as §2

| Sequence | Binding to HLA-A*0201 (in words) (HLA-A*0201) | % of maximum HIV pol 589-597 binding activity (HLA-A*0201; peptide at 6.25 μM) [%] | % of maximum HIV pol 589-597 binding activity (HLA-A*0201; peptide at 25 μM) [%] | % of maximum HIV pol 589-597 binding activity (HLA-A*0201; peptide at 100 μM) [%] | Response of splenocytes, ELISPOT-IFNγ (in words) ([1]; HHD DR3 and HHD DR1 mice immunized with IL13RA2-BL + helper + IFA, stimulation with IL13RA2-BL) | Immune response against human peptide IL13RA2-HL (in words) ([1]; mice immunized with IL13RA2-BL, stimulation with human peptide) | Concentration inducing 20% of expression of the HLA-A*0201 (HLA-A*0201) [µM] | Mean fluorescence intensity (HLA-A*0201; peptide at 3 μM) | Mean fluorescence intensity (HLA-A*0201; peptide at 25 μM) | Mean fluorescence intensity (HLA-A*0201; peptide at 100 μM) | T cell responses in the ELISPOT-IFNγ assay (in words) ([2]; β/A2/DR3 mice vaccinated with FOXM1-B2 (100 μg) + HHD-DR3 + IFA, d0 and d14) | Activation of T cells after ex vivo re-stimulation with human FOXM1-H2 (in words) ([2]; β/A2/DR3 mice vaccinated with FOXM1-B2, re-stimulation FOXM1-H2 10 μM) |
| --- | --- | --- | --- | --- | --- | --- | --- | --- | --- | --- | --- | --- |
| FLPFGFILPV (Sequence variant) [SEQ ID NO: 139] | strong binding affinity | 43 | 96 | 69 | strong response of splenocytes | effective immune response |  |  |  |  |  |  |
| LMDLSTTEV (Sequence variant) [SEQ ID NO: 75] | bind |  |  |  |  |  | 6.7 | 12.7 | 98.2 | 105 | induced strong T cell responses | efficient activation of T cells could be observed |
